{"source": "IntAct's records for PubMed 23376921", "parents": {"B1": {"name": "Transmembrane protein 59 (Homo sapiens), Q9BXS4 (parent)", "chain": "MAAPKGSLWVRTQLGLPPLLLLTMALAGGSGTASAEAFDSVLGDTASCHRACQLTYPLHTYPKEEELYACQRGCRLFSICQFVDDGIDLNRTKLECESACTEAYSQSDEQYACHLGCQNQLPFAELRQEQLMSLMPKMHLLFPLTLVRSFWSDMMDSAQSFITSSWTFYLQADDGKIVIFQSKPEIQYAPHLEQEPTNLRESSLSKMSYLQMRNSQAHRNFLEDGESDGFLRCLSLNSGWILTTTLVLSVMVLLWICCATVATAVEQYVPSEKLSIYGDLEFMNEQKLNRYPASSLVVVRSKTEDHEEAGPLPTKVNLAHSEI"}, "B2": {"name": "Transmembrane protein 59 (Homo sapiens), Q9BXS4 (parent)", "chain": "B1 chain", "partner": "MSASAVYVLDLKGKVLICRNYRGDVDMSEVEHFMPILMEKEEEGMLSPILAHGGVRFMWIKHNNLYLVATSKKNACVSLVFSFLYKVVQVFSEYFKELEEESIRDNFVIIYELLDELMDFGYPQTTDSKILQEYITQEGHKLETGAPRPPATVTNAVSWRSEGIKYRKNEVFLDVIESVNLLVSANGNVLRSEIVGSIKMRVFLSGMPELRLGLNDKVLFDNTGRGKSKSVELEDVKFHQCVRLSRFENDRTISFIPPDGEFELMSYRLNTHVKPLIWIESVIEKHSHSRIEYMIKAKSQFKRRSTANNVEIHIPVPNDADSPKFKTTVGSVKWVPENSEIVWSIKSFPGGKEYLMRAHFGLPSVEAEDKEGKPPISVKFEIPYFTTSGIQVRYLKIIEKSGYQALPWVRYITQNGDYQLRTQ"}}, "data": [{"variants_of": "B1", "conditions": "with ATG16L1, Q676U5", "values": [{"variant": "Y268A;E272A;Y277A;L280A", "effect of a mutation on the interaction": "disrupting interaction"}]}, {"variants_of": "B1", "conditions": "with ATG16L1, Q676U5", "remark": "another data set of the same source", "values": [{"variant": "Y268A;E272A;Y277A;L280A", "effect of a mutation on the interaction": "disrupting interaction"}]}, {"variants_of": "B1", "conditions": "with ATG16L1, Q676U5", "remark": "another data set of the same source", "values": [{"variant": "Y268A;E272A;Y277A;L280A", "effect of a mutation on the interaction": "disrupting interaction"}]}, {"variants_of": "B1", "conditions": "with ATG16L1, Q676U5", "remark": "another data set of the same source", "values": [{"variant": "Y268A;E272A;Y277A;L280A", "effect of a mutation on the interaction": "disrupting interaction"}]}, {"variants_of": "B1", "conditions": "with ATG16L1, Q676U5", "remark": "another data set of the same source", "values": [{"variant": "Y268A;E272A;Y277A;L280A", "effect of a mutation on the interaction": "disrupting interaction"}]}, {"variants_of": "B1", "conditions": "with ap2m1_human AP2M1, Q96CW1", "values": [{"variant": "Y268A;E272A;Y277A;L280A", "effect of a mutation on the interaction": "disrupting interaction"}]}, {"variants_of": "B1", "conditions": "with mlp3a_human MAP1LC3A", "values": [{"variant": "Y268A;E272A;Y277A;L280A", "effect of a mutation on the interaction": "disrupting interaction"}]}, {"variants_of": "B1", "conditions": "with ATG16L1, Q676U5", "remark": "another data set of the same source", "values": [{"variant": "Y277A;L280A", "effect of a mutation on the interaction": "disrupting interaction"}]}, {"variants_of": "B2", "conditions": "with ap1m1_human AP1M1, Q9BXS5", "values": [{"variant": "Y268A;E272A;Y277A;L280A", "effect of a mutation on the interaction": "disrupting interaction"}]}]}
